Test results as given in paper PMC3084679 (Molecular Biology of the Cell, 2011).

Target: recombinant Roy1–Skp1 complex (S. cerevisiae, UniProt Q04847 1-553; P52286 1-194)
Test: pull-down

Sequence of recombinant Roy1–Skp1 complex (Q04847 whole entry, chain 1 of 2): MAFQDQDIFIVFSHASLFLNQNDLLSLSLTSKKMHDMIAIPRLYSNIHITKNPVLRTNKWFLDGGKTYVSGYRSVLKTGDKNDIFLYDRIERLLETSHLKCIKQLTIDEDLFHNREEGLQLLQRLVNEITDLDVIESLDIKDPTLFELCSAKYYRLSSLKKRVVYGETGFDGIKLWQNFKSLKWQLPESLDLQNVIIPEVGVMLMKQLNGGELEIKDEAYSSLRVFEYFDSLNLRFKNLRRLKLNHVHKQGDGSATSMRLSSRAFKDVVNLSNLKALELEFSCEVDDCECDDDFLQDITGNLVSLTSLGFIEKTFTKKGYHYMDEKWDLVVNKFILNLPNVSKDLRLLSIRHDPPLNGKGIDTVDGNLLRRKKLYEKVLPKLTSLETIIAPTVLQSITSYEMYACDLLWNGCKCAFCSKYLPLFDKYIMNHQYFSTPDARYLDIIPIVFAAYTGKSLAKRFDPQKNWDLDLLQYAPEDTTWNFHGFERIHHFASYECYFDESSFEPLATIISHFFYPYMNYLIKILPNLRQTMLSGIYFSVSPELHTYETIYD
Sequence of recombinant Roy1–Skp1 complex (P52286 whole entry, chain 2 of 2): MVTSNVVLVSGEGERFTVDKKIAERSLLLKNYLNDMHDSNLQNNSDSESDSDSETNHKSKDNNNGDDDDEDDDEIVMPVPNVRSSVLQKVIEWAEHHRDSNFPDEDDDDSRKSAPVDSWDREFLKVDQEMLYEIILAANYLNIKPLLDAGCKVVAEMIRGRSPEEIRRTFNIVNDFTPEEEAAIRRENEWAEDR

binding result: binds
B1: GST-Ypt52 (natural protein, S. cerevisiae, UniProt P36018 1-234, looked up)
chain: MLQFKLVLLGDSSVGKSSIVHRFVKDTFDELRESTIGAAFLSQSITIHPNDGNETKDVVIKFEIWDTAGQERYKSLAPMYYRNANAALVVYDITQEDSLQKARNWVDELKNKVGDDDLVIYLLGNKVDLCQETPSTETSPDSNEGGDEEQKVRAISTEEAKQYAQEQGLLFREVSAKTGEGVKEIFQDIGEKLYDLKKDEILSKQNRQIGGGNNGQVDINLQRPSTNDPTSCCS
